One test addresses T1, human FcγRIIA on cells (human, UniProt P12318 34-317).
T1 construct: whole, on cells; also called hFcγRIIA; FcγRIIA^+ve CHO
T1 sequence (looked up): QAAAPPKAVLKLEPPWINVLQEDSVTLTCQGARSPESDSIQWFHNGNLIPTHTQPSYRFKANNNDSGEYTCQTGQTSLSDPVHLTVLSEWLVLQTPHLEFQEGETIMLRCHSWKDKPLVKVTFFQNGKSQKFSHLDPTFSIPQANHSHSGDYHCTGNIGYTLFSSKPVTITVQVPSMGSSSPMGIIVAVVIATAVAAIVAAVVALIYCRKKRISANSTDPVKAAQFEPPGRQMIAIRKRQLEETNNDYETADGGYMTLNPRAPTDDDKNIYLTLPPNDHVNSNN
Kind of test: binding to FcγRIIA-transfected CHO-k1 cells.

The target of the next test is T2, human FcγRIIB on cells (human, UniProt P31994 43-310).
T2 construct: whole, on cells; also called hFcγRIIB; CD32B
T2 sequence (looked up): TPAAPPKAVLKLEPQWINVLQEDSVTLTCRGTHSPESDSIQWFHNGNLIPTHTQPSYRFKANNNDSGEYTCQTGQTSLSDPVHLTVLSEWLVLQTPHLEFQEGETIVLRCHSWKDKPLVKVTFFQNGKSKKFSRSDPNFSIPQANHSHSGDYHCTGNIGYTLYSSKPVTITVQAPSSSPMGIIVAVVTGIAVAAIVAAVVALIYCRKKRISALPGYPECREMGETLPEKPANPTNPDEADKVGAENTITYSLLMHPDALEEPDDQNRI
Kind of test: flow cytometry, mAb at 0.1, 1 and 10 µg/ml on B cells, MFI. (In general: In flow cytometry, cells or beads pass a laser one at a time.)

Test [1] has as its target T3, Soluble hFcγRIIB (R & D Systems) (human, UniProt P31994 46-217).
T3 construct: Bought reagent; also called hFcγRIIB fusion protein
T3 sequence (looked up): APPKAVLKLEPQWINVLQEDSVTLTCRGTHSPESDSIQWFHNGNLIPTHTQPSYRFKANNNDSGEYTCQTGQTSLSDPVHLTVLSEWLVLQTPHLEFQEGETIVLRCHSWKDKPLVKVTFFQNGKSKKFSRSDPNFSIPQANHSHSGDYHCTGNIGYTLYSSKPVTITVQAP
The test is described as follows: SPR (Biacore T100), mAb immobilised on CM5, soluble hFcγRIIB injected, 1:1 model. The procedure: (§1) A BIAcore T100 analyzer (GE Healthcare, UK) was used to determine the binding affinity of the hFcγRIIB mAb, as described elsewhere.²⁵ mAb were immobilized onto a CM5 sensorchip (GE Healthcare, UK), using standard amine coupling according to the manufacturer's instructions. Soluble hFcγRIIB (0.16-100 nM; R & D Systems, UK) was injected for 5 minutes and dissociation monitored for 10 minutes. Background binding to the control flow cell was monitored and subtracted automatically. The KD values were calculated from the 1:1 binding model using the BIAcore T100 Evaluation software.
(Surface plasmon resonance follows binding to a sensor surface in real time, without labels.)

Test [2] has as its target T3, Soluble hFcγRIIB (R & D Systems). The test is described as follows: SPR (Biacore T100), mAb immobilised on CM5, soluble hFcγRIIB injected, 1:1 model; column headed KD (1/s). Here is the method: as §1
The target is the same in test [3]. Kind of test: SPR (Biacore T100), mAb immobilised on CM5, soluble hFcγRIIB injected, 1:1 model; column headed KA (1/MS). Here is the method: as §1
For test [4], the target named is T4, cynomolgus monkey FcγRIIB (cynomolgus monkey, UniProt A0A140HDP4 43-312).
T4 construct: whole, on cells; also called FcγRIIB in other species
T4 sequence: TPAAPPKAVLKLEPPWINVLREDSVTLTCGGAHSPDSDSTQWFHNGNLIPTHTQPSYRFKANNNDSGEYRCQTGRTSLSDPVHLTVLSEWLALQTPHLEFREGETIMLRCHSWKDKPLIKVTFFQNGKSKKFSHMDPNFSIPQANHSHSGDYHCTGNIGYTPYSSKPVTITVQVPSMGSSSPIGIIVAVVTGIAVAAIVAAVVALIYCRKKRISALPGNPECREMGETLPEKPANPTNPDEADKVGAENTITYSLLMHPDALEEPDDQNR
The test is described as follows: IHC on frozen tissue sections.

The target in another test is T5, rat FcγRIIB (rat, UniProt A0A0G2K9R6 42-295).
T5 construct: also called FcγRIIB in other species
T5 sequence: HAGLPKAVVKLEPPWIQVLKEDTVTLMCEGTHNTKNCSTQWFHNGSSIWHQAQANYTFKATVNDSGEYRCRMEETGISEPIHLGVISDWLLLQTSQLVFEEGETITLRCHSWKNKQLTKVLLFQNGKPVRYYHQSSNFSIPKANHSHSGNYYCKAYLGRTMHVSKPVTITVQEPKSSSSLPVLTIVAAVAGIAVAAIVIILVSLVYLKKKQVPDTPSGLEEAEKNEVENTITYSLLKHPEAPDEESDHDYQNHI
Kind of test: IHC on frozen tissue sections.

In a further test the target is T6, mouse FcγRIIB (mouse, UniProt P08101 30-330).
T6 construct: whole, on cells; also called mFcγRII; FcγRIIB in other species
T6 sequence (looked up): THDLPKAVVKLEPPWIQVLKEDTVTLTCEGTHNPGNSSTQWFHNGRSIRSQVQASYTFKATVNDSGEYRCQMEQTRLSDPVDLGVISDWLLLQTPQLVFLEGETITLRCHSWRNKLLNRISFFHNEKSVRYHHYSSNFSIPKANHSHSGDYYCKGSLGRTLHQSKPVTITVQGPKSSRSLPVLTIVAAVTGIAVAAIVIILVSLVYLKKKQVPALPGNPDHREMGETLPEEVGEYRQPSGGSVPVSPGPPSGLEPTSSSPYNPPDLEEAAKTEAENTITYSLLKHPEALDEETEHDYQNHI
The test is described as follows: IHC on frozen tissue sections.

Test [5] addresses T3, Soluble hFcγRIIB (R & D Systems). Kind of test: SPR, mAb immobilised, soluble hFcγRIIB injected. Here is the method: as §1
For test [6] the target is unchanged. The test is described as follows: SPR, mAb immobilised, soluble hFcγRIIB injected; column headed KD (1/s). Here is the method: as §1
For test [7] the target is unchanged. The test is described as follows: SPR, mAb immobilised, soluble hFcγRIIB injected; column headed KA (1/MS). The procedure:
as §1

B1: 6C12 (antibody, human IgG1, V domains shown)
VH: EVQLLESGGGLVQPGGSLRLSCAASGFTFSSYGMHWVRQAPGKGLEWVAVISYDGSNKYYADSVKGRFTISRDNSKNTLYLQMNSLRAEDTAVYYCARERRDAFDIWGQGTLVTVSS
VL: QSVLTQPPSASGTPGQRVTISCTGSSSNIGAGYDVHWYQQLPGTAPKLLIYSDNQRPSGVPDRFSGSKSGTSASLAISGLRSEDEADYYCATWDSDTPVFGGGTKLTVLG
notes: hFcγRIIB mAb, human IgG1 (WT); Only VH/VL tied to the clone; also called Antibody clone: 6C12
For B1, in the test with human FcγRIIA on cells, the binding result is “no binding”.

B2: 4B02 (antibody, human IgG1, V domains shown)
VH: EVQLLESGGGLVQPGGSLRLSCAASGFTFSNHGMHWVRQAPGKGLEWVAVISYDGTNKYYADSVRGRFTISRDNSKNTLYLQMNSLRAEDTAVYYCARETWDAFDVWGQGTLVTVSS
VL: QSVLTQPPSASGTPGQRVTISCSGSSSNIGSNNANWYQQLPGTAPKLLIYDNNKRPSGVPDRFSGSKSGTSASLAISGLRSEDEADYYCQAWDSSTVVFGGGTKLTVLG
notes: hFcγRIIB mAb, human IgG1 (WT); Only VH/VL tied to the clone; also called Antibody clone: 4B02
For the molecule B2, the binding result with human FcγRIIA on cells is on record as “no binding”.

B3: 6H08 (antibody, human IgG1, V domains shown)
VH: EVQLLESGGGLVQPGGSLRLSCAASGFTFNNYGMHWVRQAPGKGLEWVAVISYDGSNKYYADSVKGRFTISKDNSKNTLYLQMNSLRAEDTAVYYCAREYKDAFDIWGQGTLVTVSS
VL: QSVLTQPPSASGTPGQRVTISCTGSSSNIGSNTVNWYQQLPGTAPKLLIYDNNKRPSGVPDRFSGSKSGTSASLAISGLRSEDEADYYCQAWGTGIRVFGGGTKLTVLG
notes: hFcγRIIB mAb, human IgG1 (WT); Only VH/VL tied to the clone; also called Antibody clone: 6H08
Regarding B3, the binding result with human FcγRIIA on cells is recorded as “no binding”.

B4: 1E05 (antibody, human IgG1, V domains shown)
VH: EVQLLESGGGLVQPGGSLRLSCAASGFTFSTYAMNWVRQVPGKGLEWVAVISYDGSNKNYVDSVKGRFTISRDNSKNTLYLQMNSLRAEDTAVYYCARNFDNSGYAIPDAFDIWGQGTLVTVSS
VL: QSVLTQPPSASGTPGQRVTISCTGSSSNIGAGYDVHWYQQLPGTAPKLLIYDNNSRPSGVPDRFSGSKSGTSASLAISGLRSEDEADYYCAAWDDSLGGPVFGGGTKLTVLG
notes: Only VH/VL tied to the clone; also called Antibody clone: 1E05
As to B4, the binding result with human FcγRIIB on cells is listed as “no binding (tested: 10 µg/ml)”.

B5: 6G08 (antibody, human IgG1, V domains shown)
VH: EVQLLESGGGLVQPGGSLRLSCAASGFTLSSYGISWVRQAPGKGLEWVSGISGSGGNTYYADSVKGRFTISRDNSKNTLYLQMNSLRAEDTAVYYCASSVGAYANDAFDIWGQGTLVTVSS
VL: QSVLTQPPSASGTPGQRVTISCTGSSSNIGAGYDVHWYQQLPGTAPKLLIYGDTNRPSGVPDRFSGSKSGTSASLAISGLRSEDEADYYCAAWDDSLNGPVFGGGTKLTVLG
notes: hFcγRIIB mAb (agonistic), human IgG1 (WT); Only VH/VL tied to the clone; also called Antibody clone: 6G08
For orientation: Kd means the equilibrium constant for the complex coming apart. Usually koff stands for a measure of how fast the partners let go of each other. By kon is commonly meant a measure of how fast the partners come together. On to B5, for which the binding result with human FcγRIIA on cells is given as “no binding”. The affinity in [1], expressed as Kd, was 713 nM. Moreover, the dissociation rate constant (koff) in [2] amounted to 0.337 s⁻¹. Besides, in test [3], the kon was determined as 472000 M⁻¹ s⁻¹.

B6: 5E12 (antibody, human IgG1, V domains shown)
VH: EVQLLESGGGLVQPGGSLRLSCAASGFTFSSYGMHWVRQAPGKGLEWVAVISYDGINKDYADSMKGRFTISRDNSKNTLYLQMNSLRAEDTAVYYCARERKDAFDIWGQGTLVTVSS
VL: QSVLTQPPSASGTPGQRVTISCTGSSSNIGAGYDVHWYQQLPGTAPKLLIYSNNQRPSGVPDRFSGSKSGTSASLAISGLRSEDEADYYCATWDDSLNGLVFGGGTKLTVLG
notes: hFcγRIIB mAb, human IgG1 (WT); Only VH/VL tied to the clone; also called Antibody clone: 5E12
As to B6, the binding result with human FcγRIIA on cells is “no binding”.

B7: 6C11 (antibody, human IgG1, V domains shown)
VH: EVQLLESGGGLVQPGGSLRLSCAASGFTFDDYGMSWVRQAPGKGLEWVSAISGSGSSTYYADSVKGRFTISRDNSKNTLYLQMNSLRAEDTAVYYCAGGDIDYFDYWGQGTLVTVSS
VL: QSVLTQPPSASGTPGQRVTISCTGSSSNFGAGYDVHWYQQLPGTAPKLLIYENNKRPSGVPDRFSGSKSGTSASLAISGLRSEDEADYYCAAWDDSLNGPVFGGGTKLTVLG
notes: hFcγRIIB mAb, human IgG1 (WT); Only VH/VL tied to the clone; also called Antibody clone: 6C11
As to B7, the binding result with human FcγRIIA on cells was “no binding”.

B8: 7C07 (antibody, human IgG1, V domains shown)
VH: EVQLLESGGGLVQPGGSLRLSCAASGFTFSSYGMHWVRQAPGKGLEWVAVISYDGSNKYYADSVKGRFTISRDNSQNTLYLQMNSLRAEDTAVYYCAREFGYIILDYWGQGTLVTVSS
VL: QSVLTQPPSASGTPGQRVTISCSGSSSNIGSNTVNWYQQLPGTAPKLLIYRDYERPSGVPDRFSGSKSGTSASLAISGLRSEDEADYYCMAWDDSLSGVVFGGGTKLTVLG
notes: Antagonistic hFcγRIIB mAb, human IgG1 (WT); Only VH/VL tied to the clone; also called Antibody clone: 7C07
B8: the binding result (in test [4]; in the test with rat FcγRIIB; with mouse FcγRIIB) was “no binding” throughout. Moreover, the Kd in [5] and in [1] was 23.9 nM each time. The koff in test [6] and in test [2] was 0.0185 s⁻¹ in each case. The kon in test [7] and in test [3] was 913000 M⁻¹ s⁻¹ in each case.

B9: 2A09 (antibody, human IgG1, V domains shown)
VH: EVQLLESGGGLVQPGGSLRLSCAASGFTFSNAWMSWVRQAPGKGLEWVAYISRDADITHYPASVKGRFTISRDNSKNTLYLQMNSLRAEDTAVYYCTTGFDYAGDDAFDIWGQGTLVTVSS
VL: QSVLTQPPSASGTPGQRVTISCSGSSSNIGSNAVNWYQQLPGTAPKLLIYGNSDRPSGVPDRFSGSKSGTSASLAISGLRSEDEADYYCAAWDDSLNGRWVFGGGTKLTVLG
notes: Only VH/VL tied to the clone; also called Antibody clone: 2A09
On to B9, for which the binding result in the test with human FcγRIIB on cells was “no binding (tested: 10 µg/ml)”.

B10: 1C04 (antibody, human IgG1, V domains shown)
VH: EVQLLESGGGLVQPGGSLRLSCAASGFTFSSYAMSWVRQAPGKGLEWVSSISDSGAGRYYADSVEGRFTISRDNSKNTLYLQMNSLRAEDTAVYYCARTHDSGELLDAFDIWGQGTLVTVSS
VL: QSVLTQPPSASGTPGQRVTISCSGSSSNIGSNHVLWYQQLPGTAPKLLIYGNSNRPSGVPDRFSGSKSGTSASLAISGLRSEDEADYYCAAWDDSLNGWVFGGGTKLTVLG
notes: Only VH/VL tied to the clone; also called Antibody clone: 1C04
Turning to B10, the binding result with human FcγRIIB on cells is recorded as “no binding (tested: 10 µg/ml)”.

B11: 6G03 (antibody, human IgG1, V domains shown)
VH: EVQLLESGGGLVQPGGSLRLSCAASGFTFGSYGMHWVRQAPGKGLEWVSGISWDSAIIDYAGSVKGRFTISRDNSKNTLYLQMNSLRAEDTAVYYCAKDEAAAGAFDIWGQGTLVTVSS
VL: QSVLTQPPSASGTPGQRVTISCTGSSSNIGAGYDVHWYQQLPGTAPKLLIYGNTDRPSGVPDRFSGSKSGTSASLAISGLRSEDEADYYCAAWDDSLSGPVVFGGGTKLTVLG
notes: hFcγRIIB mAb, human IgG1 (WT); Only VH/VL tied to the clone; also called Antibody clone: 6G03
As to B11, in the test with human FcγRIIA on cells, the binding result was “no binding”.

These data come from patent US20170107293A1 (BIOINVENT INTERNATIONAL, published 2017).
